Laboratory results: publication PMC6318328, “Structural insights into trans-histone regulation of H3K4 methylation by unique histone H4 binding of MLL3/4” (Nature Communications, 2019)

T1: MLL3_(ePHD6)_(1055–1144) (human, UniProt Q8NEZ4 1055-1144)
T1 construct: MLL3 (KMT2C), human, residues 1055–1144: the zinc finger before PHD6 and the sixth PHD domain; Monomer in solution by gel filtration; the dimer in the crystal is put down to crystal packing; also called extended PHD6 domain of MLL3; source: E. coli BL21 (DE3) Codon plus RIL, purified (Ni-NTA, thrombin, HiTrap Q, Superdex75); not shown: GST, N-terminal, cleaved; His tag, N-terminal, cleaved
T1 sequence (looked up): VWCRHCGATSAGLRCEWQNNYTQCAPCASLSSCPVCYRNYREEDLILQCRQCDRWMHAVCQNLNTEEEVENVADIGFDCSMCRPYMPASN

T2: MLL3_(ePHD6)_(1075–1144) (human, UniProt Q8NEZ4 1075-1144)
T2 construct: MLL3 (KMT2C), human, residues 1075–1144; also called MLL3_ePHD6, residues 1075–1144; source: E. coli BL21 (DE3) Codon plus RIL, purified (Ni-NTA, thrombin, HiTrap Q, Superdex75); not shown: GST, N-terminal, cleaved; His tag, N-terminal, cleaved
T2 sequence (looked up): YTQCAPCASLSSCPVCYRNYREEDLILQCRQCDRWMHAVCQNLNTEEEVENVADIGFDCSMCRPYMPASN

T3: MLL3_(PHD5-6)_(1008–1144) (human, UniProt Q8NEZ4 1008-1144)
T3 construct: MLL3 (KMT2C), human, residues 1008–1144; also called PHD5–6 of MLL3; source: E. coli BL21 (DE3) Codon plus RIL, purified (Ni-NTA, thrombin, HiTrap Q, Superdex75); not shown: GST, N-terminal, cleaved; His tag, N-terminal, cleaved
T3 sequence (looked up): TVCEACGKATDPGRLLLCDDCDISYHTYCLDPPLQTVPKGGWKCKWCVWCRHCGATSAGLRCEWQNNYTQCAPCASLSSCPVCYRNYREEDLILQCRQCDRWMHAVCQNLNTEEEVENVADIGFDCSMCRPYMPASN

B1: MLL4_(PHD6)_(1505–1564) (domain or fragment, human, UniProt O14686 1505-1564, looked up)
chain: VTCPICHAPYVEEDLLIQCRHCERWMHAGCESLFTEDDVEQAADEGFDCVSCQPYVVKPV
notes: MLL4 (KMT2D), human, residues 1505–1564 (sixth PHD domain alone); also called PHD6 domain of MLL4; source: E. coli BL21 (DE3) Codon plus RIL, purified (Ni-NTA, thrombin, HiTrap Q, Superdex75); not shown: GST, N-terminal, cleaved; His tag, N-terminal, cleaved
B2: MLL4_(ePHD6)_(1475–1564) (domain or fragment, human, UniProt O14686 1475-1564, looked up)
chain: VSCMQCGAASPGFHCEWQNSYTHCGPCASLVTCPICHAPYVEEDLLIQCRHCERWMHAGCESLFTEDDVEQAADEGFDCVSCQPYVVKPV
notes: MLL4 (KMT2D, ALR), human, residues 1475–1564: the zinc finger before PHD6 and the sixth PHD domain; also called extended PHD6 domain of MLL4; source: E. coli BL21 (DE3) Codon plus RIL, purified (Ni-NTA, thrombin, HiTrap Q, Superdex75); not shown: GST, N-terminal, cleaved; His tag, N-terminal, cleaved
B3: histone H4 peptide H4_(11–21) (peptide, UniProt P62805 12-22, looked up)
peptide: GKGGAKRHRKV
notes: histone H4, residues 11–21; also called H4H18 peptide; source: synthetic peptide (Peptide 2.0 Inc.)

Experiments:
[1] = biological target: the molecule itself; experiment: SEC; gel-filtration profiles of the purified domains (Supplementary Fig. 3)
MLL3_(ePHD6)_(1055–1144) = biological target: T1, MLL3_(ePHD6)_(1055–1144); experiment: ITC; peptide (1–2 mM) in the syringe injected into protein (50–100 μM) in the cell; 25 °C; 20 mM Tris pH 7.5, 150 mM NaCl; single-site binding model; settings: both partners purified
MLL4_(ePHD6)_(1475–1564) = biological target: B2; experiment: as above; settings: both partners purified
MLL3_(ePHD6)_(1075–1144) = biological target: T2, MLL3_(ePHD6)_(1075–1144); experiment: as above; settings: both partners purified
[2] = biological target: T3, MLL3_(PHD5-6)_(1008–1144); experiment: as above; settings: both partners purified
MLL4_(ePHD6)_(1495–1564) = biological target: T4, MLL4_(ePHD6)_(1495–1564) (human, UniProt O14686 1495-1564); experiment: as above; settings: both partners purified
T4 construct: MLL4 (KMT2D), human, residues 1495–1564; also called MLL4_ePHD6, residues 1495–1564; source: E. coli BL21 (DE3) Codon plus RIL, purified (Ni-NTA, thrombin, HiTrap Q, Superdex75); not shown: GST, N-terminal, cleaved; His tag, N-terminal, cleaved

| Kd (MLL3_(ePHD6)_(1055–1144)) | Kd (MLL4_(ePHD6)_(1475–1564)) | Kd (MLL3_(ePHD6)_(1075–1144)) | Kd [2] | Kd (MLL4_(ePHD6)_(1495–1564)) | Binder | stoichiometry N [1] |
| --- | --- | --- | --- | --- | --- | --- |
| – | – | – | – | – | B1 | 2 |
| – | – | – | – | – | B2 | 2 |
| 35 µM | 52 µM | 31 µM | 83 µM | 48 µM | B3 | – |
